Data on one molecule can be found in publication PMC4895385, “The ubiquitin E3 ligase TRAF6 exacerbates pathological cardiac hypertrophy via TAK1-dependent signalling” (Nature Communications, 2016).

The target of this experiment is T1, FLAG-tagged TAK1 (pcDNA5-FLAG-TAK1) (human, UniProt O43318-2 1-579).
T1 construct: TAK1 (MAP3K7), human, gene cloned into pcDNA5-FLAG-C1; the truncates end at residue 579, so the 579-residue isoform is meant; source: HEK293T, transfected, in lysate; immunopurified from HEK293T (eluted with FLAG peptide) for the GST pull-down
T1 sequence (looked up): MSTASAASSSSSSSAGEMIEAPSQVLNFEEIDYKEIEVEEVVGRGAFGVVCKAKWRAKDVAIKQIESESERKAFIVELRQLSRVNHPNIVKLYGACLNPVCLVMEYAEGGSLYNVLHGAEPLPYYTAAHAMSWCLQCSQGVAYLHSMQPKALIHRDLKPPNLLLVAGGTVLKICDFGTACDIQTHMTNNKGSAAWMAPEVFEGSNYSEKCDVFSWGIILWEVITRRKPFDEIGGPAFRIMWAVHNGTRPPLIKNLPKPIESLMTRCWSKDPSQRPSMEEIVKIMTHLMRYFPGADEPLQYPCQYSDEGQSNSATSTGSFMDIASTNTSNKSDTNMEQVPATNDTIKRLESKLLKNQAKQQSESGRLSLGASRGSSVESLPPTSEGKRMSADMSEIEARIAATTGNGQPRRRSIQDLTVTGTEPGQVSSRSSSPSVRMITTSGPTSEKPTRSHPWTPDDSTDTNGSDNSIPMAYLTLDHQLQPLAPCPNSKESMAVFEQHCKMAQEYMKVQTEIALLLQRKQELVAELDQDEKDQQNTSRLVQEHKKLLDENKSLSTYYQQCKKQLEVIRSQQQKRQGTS
Description: pull-down; GST-TRAF6 retained on glutathione-Sepharose 4B beads, incubated 4 h at 4 °C with immunopurified Flag-TAK1 from HEK293T cells; eluted with 20 mM reduced glutathione; blot with anti-FLAG. As to conditions: both partners purified.

B1: GST-tagged TRAF6 (pGEX-4T-1-GST-TRAF6) (natural protein, human, UniProt Q9Y4K3 1-522, looked up)
chain: MSLLNCENSCGSSQSESDCCVAMASSCSAVTKDDSVGGTASTGNLSSSFMEEIQGYDVEFDPPLESKYECPICLMALREAVQTPCGHRFCKACIIKSIRDAGHKCPVDNEILLENQLFPDNFAKREILSLMVKCPNEGCLHKMELRHLEDHQAHCEFALMDCPQCQRPFQKFHINIHILKDCPRRQVSCDNCAASMAFEDKEIHDQNCPLANVICEYCNTILIREQMPNHYDLDCPTAPIPCTFSTFGCHEKMQRNHLARHLQENTQSHMRMLAQAVHSLSVIPDSGYISEVRNFQETIHQLEGRLVRQDHQIRELTAKMETQSMYVSELKRTIRTLEDKVAEIEAQQCNGIYIWKIGNFGMHLKCQEEEKPVVIHSPGFYTGKPGYKLCMRLHLQLPTAQRCANYISLFVHTMQGEYDSHLPWPFQGTIRLTILDQSEAPVRQNHEEIMDAKPELLAFQRPTIPRNPKGFGYVTFMHLEALRQRTFIKDDTLLVRCEVSTRFDMGSLRREGFQPRSTDAGV
notes: TRAF6, human, gene cloned into pGEX-4T-1; pGEX-4T-1 normally places GST at the N-terminus (surmised); source: E. coli Rosetta (DE3), retained on glutathione-Sepharose 4B beads and washed
Turning to B1, the binding result is recorded as “binds”.
